Positions count from the first letter of the chain named.
B1: SEQ ID NO: 492: GAT polypeptide (protein)
chain: MLEVKPINAEDTYELRHRILRPNQPIEVCMYESDLLRGAFHLGGYYRGKLISIASFHQAEHSELQGQKQYQLRGMATLEGYREQKAGSSLIKHAEEILRKRGADLLWCNARTSASGYYKKLGFSEQGEIFETPPVGPHILMYKRIT
modifications: 3_8G11
notes: GAT polypeptide
B2: SEQ ID NO: 506: GAT polypeptide (protein)
chain: B1 chain with S33T, Y45F, L105M, I145L
modifications: 8_1H7
notes: GAT polypeptide
B3: SEQ ID NO: 504: GAT polypeptide (protein)
chain: B1 chain with L2I, I19V, I26L, S33T, I129V, I145L
modifications: 8_1G2
notes: GAT polypeptide
B4: SEQ ID NO: 503: GAT polypeptide (protein)
chain: B1 chain with L2I, I26L, S33T, Y45F, E63D, E131D
modifications: 8_1F8
notes: GAT polypeptide
B5: SEQ ID NO: 505: GAT polypeptide (protein)
chain: B1 chain with R18K, S33T, K92R, E131D
modifications: 8_1G3
notes: GAT polypeptide
B6: SEQ ID NO: 500: GAT polypeptide (protein)
chain: B1 chain with R18K, I26L, S33T, Y45F, E83D, K92R, E96Q, L105M, I129V, I145L
modifications: 6_1F1
notes: GAT polypeptide
B7: SEQ ID NO: 496: GAT polypeptide (protein)
chain: B1 chain with R18K, S33T, Y45F, R47G, E63D, E83D, K92R, E96Q, L105M, I145L
modifications: 5_2F10
notes: GAT polypeptide
B8: SEQ ID NO: 493: GAT polypeptide (protein)
chain: B1 chain with L2I, S33T, Y45F, R47G, E63D, E83D, K92R, E96Q, L105M
modifications: 4_1B10
notes: GAT polypeptide
B9: SEQ ID NO: 494: GAT polypeptide (protein)
chain: B1 chain with L2I, I26L, S33T, Y45F, R47G, E63D, E83D, K92R, E96Q, L105M
modifications: 5_2B3
notes: GAT polypeptide
B10: SEQ ID NO: 507: GAT polypeptide (protein)
chain: B1 chain with R18K, I26L, S33T, E63D, K92R, I129V, E131D, I145L
modifications: 8_1H9
notes: GAT polypeptide
B11: SEQ ID NO: 280: GAT polypeptide (protein)
chain: MIEVKPINAEDTYEIRHRILRPNQPLEACMYETDLLGGTFHLGGYYRGKLVSIASFHQAEHPELEGQKQYQLRGMATLEGYREQKAGSTLIRHAEELLRKKGADLLWCNARTSASGYYKKLGFSEQGEVYDIPPTGPHILMYKKLT
modifications: 10_4H7
notes: GAT polypeptide
B12: SEQ ID NO: 281: GAT polypeptide (protein)
chain: B11 chain with M30K, F40L, T135V
modifications: 10_6D11
notes: GAT polypeptide
B13: SEQ ID NO: 284: GAT polypeptide (protein)
chain: B11 chain with R47Q, V51I, P62S, K119E, E128G, T135I, T146A
modifications: 11G3
notes: GAT polypeptide
B14: SEQ ID NO: 292: GAT polypeptide (protein)
chain: B11 chain with M30K, V51I
modifications: 12_6F9
notes: GAT polypeptide
B15: SEQ ID NO: 511: GAT polypeptide (protein)
chain: B11 chain with V51I, A114V, K119E, T135I
modifications: GAT1_32G1
notes: GAT polypeptide
B16: SEQ ID NO: 282: GAT polypeptide (protein)
chain: B11 chain with M30K, T39A, V51I, E128G, T135V
modifications: 10_8C6
notes: GAT polypeptide
B17: SEQ ID NO: 289: GAT polypeptide (protein)
chain: B11 chain with M30K, V51I, G80E, I132A
modifications: 12_5C10
notes: GAT polypeptide
B18: SEQ ID NO: 509: GAT polypeptide (protein)
chain: B11 chain with V51I, P62S, S113F, A114V, K119E, T135I, H138Y, K143E
modifications: GAT1_24G3
notes: GAT polypeptide
B19: SEQ ID NO: 287: GAT polypeptide (protein)
chain: B11 chain with M30K, I132T, T135V
modifications: 12_2G9
notes: GAT polypeptide
B20: SEQ ID NO: 288: GAT polypeptide (protein)
chain: B11 chain with M30K, V51I, E128G, T135V
modifications: 12_3F1
notes: GAT polypeptide
B21: SEQ ID NO: 510: GAT polypeptide (protein)
chain: B11 chain with V51I, P62S, A114V, E128G, Y130C, T135I, T146A
modifications: GAT1_29G1
notes: GAT polypeptide
B22: SEQ ID NO: 286: GAT polypeptide (protein)
chain: B11 chain with M30K, V51I, Y130H
modifications: 12_1F9
notes: GAT polypeptide
B23: SEQ ID NO: 291: GAT polypeptide (protein)
chain: B11 chain with V51I, G80E, E128G, T135V
modifications: 12_6D1
notes: GAT polypeptide
B24: SEQ ID NO: 514: GAT polypeptide (protein)
chain: B11 chain with V51I, P62S, A114V, E128G, T135I
modifications: GAT2_21F1
notes: GAT polypeptide
B25: SEQ ID NO: 512: GAT polypeptide (protein)
chain: B11 chain with M30K, V51I, Q58N, P62S, A114V, T135I
modifications: GAT2_15G8
notes: GAT polypeptide
B26: SEQ ID NO: 290: GAT polypeptide (protein)
chain: B11 chain with M30K, E128G, T135V
modifications: 12_6A10
notes: GAT polypeptide
B27: SEQ ID NO: 285: GAT polypeptide (protein)
chain: B11 chain with T39A, R47Q, V51I, Q58K, P62S, A114V, S115R, K119E, E128G, T135I
modifications: 11H3
notes: GAT polypeptide
B28: SEQ ID NO: 508: GAT polypeptide (protein)
chain: B11 chain with M30K, V51I, Q58N, P62S, A114V, T135I
modifications: GAT1_21F12
notes: GAT polypeptide
B29: SEQ ID NO: 513: GAT polypeptide (protein)
chain: B11 chain with V51I, A114V, K119E, Y130C, T135I
modifications: GAT2_19H8
notes: GAT polypeptide
B30: SEQ ID NO: 283: GAT polypeptide (protein)
chain: B11 chain with M30K, R47Q, V51I, P62S, A114V, E128G, T135I
modifications: 11C3
notes: GAT polypeptide
B31: SEQ ID NO: 495: GAT polypeptide (protein)
chain: MLXVKPINAEDTYELRHKILRPNQPXEVCMYEXDLLRGAFHLGGFYRGKLISIASFHQAEHSDLQGQKQYQLRGMATLEGYRDQKAGSSLIKHAEQILRERGADMLWCNARTSASGYYKKLGFSEQGEVFDTPPVGPHILMYKRLT
modifications: X: residue not identified in the source; ends and bridges not checked
notes: GAT polypeptide
B32: SEQ ID NO: 501: GAT polypeptide (protein)
chain: B31 chain with X3E, X26L, X33T, R47G, K92R, Q96E, E100K, R144K, L145I
modifications: 6_1H10
notes: GAT polypeptide
B33: SEQ ID NO: 499: GAT polypeptide (protein)
chain: B31 chain with L2I, X3E, X26L, X33T, D83E, K92R, E100K, D131E
modifications: 6_1F11
notes: GAT polypeptide
B34: SEQ ID NO: 497: GAT polypeptide (protein)
chain: B31 chain with X3E, X26L, X33T, K92R, E100K, K119R, D131E
modifications: 6_1A11
notes: GAT polypeptide
B35: SEQ ID NO: 498: GAT polypeptide (protein)
chain: B31 chain with L2I, X3E, X26L, X33T, K92R, E100K, D131E, L145I
modifications: 6_1D5
notes: GAT polypeptide
B36: SEQ ID NO: 502: GAT polypeptide (protein)
chain: B31 chain with X3E, X26L, X33T, R47G, S89T, E100K, D131E
modifications: 6_1H4
notes: GAT polypeptide

Assay: Standard protocol for determination of kcat and KM (continuous spectrophotometric assay, Acetyl CoA hydrolysis at 235 nm)
Assay type: biochemical
Conditions: purified protein; about 23° C.; 20 mM HEPES pH 6.8, 10% ethylene glycol, 0.2 mM acetyl CoA
Method in brief: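 KM from initial rates over 0.125–10 mM glyphosate, fitted by Lineweaver-Burke transformation of Michaelis-Menten; kcat/KM computed as kcat divided by KM. Continuous spectrophotometric read of acetyl-CoA hydrolysis at 235 nm.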

Point of comparison: B4, Kcat 1.381 s⁻¹. Against it:
- B1 — within 1.5-fold, 1.652 s⁻¹
- B2 — within 1.5-fold, 1.6873 s⁻¹
- B3 — within 1.5-fold, 1.124 s⁻¹
- B5 — within 1.5-fold, 1.815 s⁻¹
- B6 — within 1.5-fold, 1.164 s⁻¹
- B7 — 1.5-fold lower, 0.912 s⁻¹
- B8 — within 1.5-fold, 1.285 s⁻¹
- B9 — within 1.5-fold, 0.9458 s⁻¹
- B10 — within 1.5-fold, 1.306 s⁻¹
- B11 — within 1.5-fold, 1.87 s⁻¹
- B12 — within 1.5-fold, 1.04 s⁻¹
- B13 — 5.3-fold lower, 0.26 s⁻¹
- B14 — within 1.5-fold, 1.48 s⁻¹
- B15 — 18-fold lower, 0.075 s⁻¹
- B16 — 3.8-fold lower, 0.362 s⁻¹
- B17 — within 1.5-fold, 1.49 s⁻¹
- B18 — 17-fold lower, 0.0817 s⁻¹
- B19 — 1.8-fold higher, 2.523 s⁻¹
- B20 — 1.9-fold lower, 0.735 s⁻¹
- B21 — 13-fold lower, 0.103 s⁻¹
- B22 — within 1.5-fold, 1.34 s⁻¹
- B23 — 1.7-fold lower, 0.817 s⁻¹
- B24 — 20-fold lower, 0.07 s⁻¹
- B25 — 18-fold lower, 0.075 s⁻¹
- B26 — 1.5-fold lower, 0.912 s⁻¹
- B27 — 69-fold lower, 0.02 s⁻¹
- B28 — 15-fold lower, 0.09 s⁻¹
- B29 — 20-fold lower, 0.0683 s⁻¹
- B30 — 30-fold lower, 0.0467 s⁻¹
- B31 — within 1.5-fold, 1.257 s⁻¹
- B32 — 4.9-fold lower, 0.2835 s⁻¹
- B33 — within 1.5-fold, 1.7627 s⁻¹
- B34 — 1.8-fold lower, 0.759 s⁻¹
- B35 — 1.9-fold lower, 0.7153 s⁻¹
- B36 — within 1.5-fold, 1.432 s⁻¹

Same assay, conditions: purified protein; about 23° C.; pH 6.8; 0.2 mM acetyl CoA; glyphosate 0.125 to 10 mM

Point of comparison: B16, Km 700 µM. Against it:
- B11 — 2.4-fold higher, 1700 µM
- B12 — 1.7-fold higher, 1200 µM
- B13 — 2.4-fold higher, 1700 µM
- B14 — 2.7-fold higher, 1900 µM
- B15 — 4.7-fold higher, 3300 µM
- B17 — 2.1-fold higher, 1500 µM
- B18 — 5.4-fold higher, 3800 µM
- B19 — 2.1-fold higher, 1500 µM
- B20 — within 1.5-fold, 900 µM
- B21 — 5.7-fold higher, 4000 µM
- B22 — 4.3-fold higher, 3000 µM
- B23 — 1.7-fold higher, 1200 µM
- B24 — 4.3-fold higher, 3000 µM
- B25 — 4-fold higher, 2800 µM
- B26 — 1.6-fold higher, 1100 µM
- B27 — 2-fold higher, 1400 µM
- B28 — 6.6-fold higher, 4600 µM
- B29 — 4-fold higher, 2800 µM
- B30 — 4.4-fold higher, 3100 µM
